# Source: patent US20260216379A1 (GEORGIA STATE UNIVERSITY RESEARCH FOUNDATION, published 2026)
# B1: ProCA32 (other)
# chain: SMTDLLNAEDIKKAVGAFSATDSFDHKKFFQMVGLKKKSADDVKKVFHMLDKDKDGFIEEDELGFILKGFSPDARDLSAKETKMLMAAGDKDGDGKIGVEEWSTLVAES
# notes: Control without a targeting moiety; also called non-targeted ProCA32; ProCA32 itself without targeting moiety
# B2: ProCA32.564.PSMA (designed binder, not shown: small tags and cut ends)
# chain: MSMTDLLNAEDIKKAVGAFSATDSFDHKKFFQMVGLKKKSADDVKKVFHMLDKDKDGFIEEDELGFILKGFSPDARDLSAKETKMLMAAGDKDGDGKIGVEEWSTLVAESLSFFSCWLRRSFSLT
# notes: Fluorescein-labelled in the anisotropy assays, unlabelled in the ELISA
# B3: rat ProCA32.collagen (designed binder)
# chain: MSMTDLLSAEDIKKAIGAFTAADSFDHKKFFQMVGLKKKSADDVKKVFHILDKDKDGFIEEDELGSILKGFSSDARDLSAKETKTLMAAGDKDGDGKIGVEEWSTLVAESGGGKKWHCYTYFPHHYCVYG
# modifications: Used as a contrast agent loaded with Gd3+; the metal ions are not carried by the letters.
# B4: ProCA32.V1.CXCR4 (designed binder)
# chain: MSMTDLLNAEDIKKAVGAFSATDSFDHKKFFQMVGLKKKSADDVKKVFHMLDKDKDGFIEEDELGFILKGFSPDARDLSAKETKMLMAAGDKDGDGKIGVEEWSTLVAESLGASWHRPDKCCLGYQKRPLP
# notes: also called ProCA32.CXCR4
# Columns and labels:
# PSMA [1] = target: T1, PSMA (UniProt Q04609 1-750, limits assumed); assay: indirect ELISA on coated LNCaP cell lysate
# T1 construct: whole, on cells; also called PSMA in LNCaP cell lysate; PSMA on LNCaP cells
# Source text: Briefly, LNCaP cell lysates were coated in a 96-well plate and 5% BSA was used as blocking agent. […] The interaction between ProCA32 variants and PSMA in cell lysates was quantified by ELISA using HRP-conjugated goat-anti-rabbit secondary antibody and one step ELISA kit.
# PSMA [2] = target: T1, PSMA; assay: assay not given; presumably the ELISA on LNCaP cell lysate of FIG. 10
# collagen type I = collagen type I (mouse, UniProt P11087 152-1207; Q01149 86-1125); assay: cell-based or functional assay
# CXCR4 = target: T2, CXCR4 (UniProt P61073 1-352, limits assumed); assay: binding to CXCR4 positive cells (FIGS. 47A-47B)
# T2 construct: whole, on cells; also called chemokine receptor type 4; CXCR4 on Mel290 cells
# T2 sequence (P61073 whole entry): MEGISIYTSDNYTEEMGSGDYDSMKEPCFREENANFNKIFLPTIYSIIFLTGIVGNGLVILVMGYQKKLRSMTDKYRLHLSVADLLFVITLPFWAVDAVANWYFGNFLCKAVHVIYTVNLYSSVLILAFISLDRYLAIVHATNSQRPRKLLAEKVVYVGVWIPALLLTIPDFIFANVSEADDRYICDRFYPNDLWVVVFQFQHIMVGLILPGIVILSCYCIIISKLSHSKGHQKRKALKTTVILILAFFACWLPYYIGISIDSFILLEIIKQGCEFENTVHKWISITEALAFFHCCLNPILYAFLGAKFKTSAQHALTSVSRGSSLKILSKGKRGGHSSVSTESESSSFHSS
# T1 sequence (Q04609 whole entry): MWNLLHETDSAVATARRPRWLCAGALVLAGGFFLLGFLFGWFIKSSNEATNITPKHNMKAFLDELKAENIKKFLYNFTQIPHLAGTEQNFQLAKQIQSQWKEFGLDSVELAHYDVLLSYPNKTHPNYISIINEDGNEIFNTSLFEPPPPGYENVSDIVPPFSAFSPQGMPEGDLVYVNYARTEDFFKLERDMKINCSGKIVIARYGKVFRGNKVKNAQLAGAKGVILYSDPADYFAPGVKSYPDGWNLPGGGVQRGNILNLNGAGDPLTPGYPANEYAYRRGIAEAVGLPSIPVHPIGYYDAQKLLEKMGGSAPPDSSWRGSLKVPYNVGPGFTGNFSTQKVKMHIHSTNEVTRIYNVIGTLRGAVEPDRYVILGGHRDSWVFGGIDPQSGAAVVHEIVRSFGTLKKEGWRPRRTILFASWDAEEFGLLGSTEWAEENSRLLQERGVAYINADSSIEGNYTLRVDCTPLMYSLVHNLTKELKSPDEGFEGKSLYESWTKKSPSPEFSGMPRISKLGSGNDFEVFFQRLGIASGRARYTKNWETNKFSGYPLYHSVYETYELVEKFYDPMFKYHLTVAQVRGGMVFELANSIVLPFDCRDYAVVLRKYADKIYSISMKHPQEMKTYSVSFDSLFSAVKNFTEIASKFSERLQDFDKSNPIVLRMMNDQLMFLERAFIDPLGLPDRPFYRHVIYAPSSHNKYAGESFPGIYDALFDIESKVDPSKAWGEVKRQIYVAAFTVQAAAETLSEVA
# Sequence of collagen type I (P11087 152-1207, chain 1 of 2): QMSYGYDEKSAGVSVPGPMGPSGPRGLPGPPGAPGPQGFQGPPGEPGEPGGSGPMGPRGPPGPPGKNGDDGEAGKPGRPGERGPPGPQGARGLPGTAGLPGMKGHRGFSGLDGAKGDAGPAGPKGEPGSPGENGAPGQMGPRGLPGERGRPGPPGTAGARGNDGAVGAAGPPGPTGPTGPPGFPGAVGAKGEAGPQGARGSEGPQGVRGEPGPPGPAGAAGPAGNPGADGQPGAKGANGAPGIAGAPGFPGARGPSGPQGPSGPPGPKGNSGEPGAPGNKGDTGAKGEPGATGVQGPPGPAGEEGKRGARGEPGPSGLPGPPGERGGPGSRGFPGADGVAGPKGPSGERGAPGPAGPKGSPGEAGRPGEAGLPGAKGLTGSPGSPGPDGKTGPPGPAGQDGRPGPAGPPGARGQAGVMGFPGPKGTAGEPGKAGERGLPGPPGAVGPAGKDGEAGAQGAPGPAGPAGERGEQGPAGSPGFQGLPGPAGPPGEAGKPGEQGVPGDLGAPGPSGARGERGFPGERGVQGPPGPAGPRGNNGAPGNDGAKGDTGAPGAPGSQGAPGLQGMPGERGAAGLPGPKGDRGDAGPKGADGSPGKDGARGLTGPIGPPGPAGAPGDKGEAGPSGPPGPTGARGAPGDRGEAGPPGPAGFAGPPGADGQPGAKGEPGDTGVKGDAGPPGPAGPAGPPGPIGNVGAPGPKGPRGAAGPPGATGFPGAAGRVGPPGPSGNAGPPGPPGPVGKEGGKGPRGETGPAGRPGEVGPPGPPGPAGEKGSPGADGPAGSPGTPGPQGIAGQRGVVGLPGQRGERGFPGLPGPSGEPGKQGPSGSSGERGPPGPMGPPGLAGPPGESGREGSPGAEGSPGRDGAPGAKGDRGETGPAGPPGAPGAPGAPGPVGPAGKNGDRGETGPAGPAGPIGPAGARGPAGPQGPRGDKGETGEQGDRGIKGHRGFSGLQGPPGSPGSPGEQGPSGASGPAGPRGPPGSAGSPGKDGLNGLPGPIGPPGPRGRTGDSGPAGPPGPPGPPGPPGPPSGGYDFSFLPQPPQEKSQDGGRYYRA
# Sequence of collagen type I (Q01149 86-1125, chain 2 of 2): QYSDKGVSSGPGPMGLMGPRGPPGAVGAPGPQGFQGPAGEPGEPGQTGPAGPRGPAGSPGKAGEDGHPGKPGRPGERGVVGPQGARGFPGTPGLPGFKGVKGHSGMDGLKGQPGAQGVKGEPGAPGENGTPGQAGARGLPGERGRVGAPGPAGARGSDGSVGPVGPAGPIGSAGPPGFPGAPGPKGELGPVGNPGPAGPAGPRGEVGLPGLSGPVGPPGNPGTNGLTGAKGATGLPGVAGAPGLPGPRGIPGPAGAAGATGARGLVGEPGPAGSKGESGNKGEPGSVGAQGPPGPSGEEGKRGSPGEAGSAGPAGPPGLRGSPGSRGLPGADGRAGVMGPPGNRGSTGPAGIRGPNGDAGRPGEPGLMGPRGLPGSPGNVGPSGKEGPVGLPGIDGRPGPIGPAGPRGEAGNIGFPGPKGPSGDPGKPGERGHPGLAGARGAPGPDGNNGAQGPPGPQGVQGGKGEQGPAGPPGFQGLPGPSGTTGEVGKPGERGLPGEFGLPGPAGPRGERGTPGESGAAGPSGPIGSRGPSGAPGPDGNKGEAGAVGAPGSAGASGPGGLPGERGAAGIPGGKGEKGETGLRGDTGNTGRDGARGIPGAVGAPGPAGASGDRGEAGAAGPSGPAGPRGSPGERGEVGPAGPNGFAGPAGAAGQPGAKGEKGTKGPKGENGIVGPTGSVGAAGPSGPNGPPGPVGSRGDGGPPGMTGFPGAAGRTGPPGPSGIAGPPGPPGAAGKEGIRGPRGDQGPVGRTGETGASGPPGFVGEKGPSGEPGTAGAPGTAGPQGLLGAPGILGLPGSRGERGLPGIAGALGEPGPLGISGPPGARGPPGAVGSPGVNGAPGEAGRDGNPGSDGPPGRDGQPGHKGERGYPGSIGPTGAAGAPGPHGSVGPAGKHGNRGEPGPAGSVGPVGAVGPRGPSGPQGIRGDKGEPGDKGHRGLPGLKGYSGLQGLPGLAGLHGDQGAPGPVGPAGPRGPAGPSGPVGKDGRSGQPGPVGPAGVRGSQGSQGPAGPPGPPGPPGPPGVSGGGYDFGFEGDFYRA
binder,measurement,setting,value
B1,binding result,PSMA [1],no binding
B2,EC50,PSMA [2],0.52 µM
B3,"Gd^3+ injection dosage per gram of tissue in fibrotic liver, against rProCA32",collagen type I,~2 fold
B4,Kd,CXCR4,1.84 µM
